Test [1] has as its target T1, interaction between JUN1 and JunZ (c-Jun dimerization) (Homo sapiens, UniProt P05412).
T1 construct: Partial fragments of c-Jun i.e., JunZ (774-927 bp) and Jun1 (558-1002 bp); expressed in transfected cells; host or cells: Saccharomyces cerevisiae strain PRT480, mated with library strain PRT51
The test is described as follows: Reverse-2-hybrid screening for inhibition of c-Jun dimerization in yeast. Type of test: cell-based. The following applies: for yeast survival on media for counter-selection against AP-1 complex formation viz. c-Jun dimerization: initial reverse-two-hybrid screen, clones expressed from pYTB3; for recapitulation of the disruption phenotype: plasmid clones rescued and re-transformed, two assays. An excerpt: The yeast two hybrid system described by Vidal.M., In: The Yeast Two Hybrid System (eds. P. Bartel and S. Fields), Oxford University Press, New York (1997), was modified to add another counter selectable marker (CYH2) and to allow flexible titration of stringency by adjustment of sugar concentrations in the screening media.
Partial fragments of c-Jun i.e., JunZ (774-927 bp) and Jun1 (558-1002 bp), were cloned into yeast two-hybrid vectors pDD (a kanamycin-resistant variant of pGilda bait vector) and pJFK (pYesTrp prey vector (Invitrogen) modified by replacing the TRP1 yeast selection gene with HIS5), respectively, before co-transforming into Saccharomyces cerevisiae strain PRT480 (MATα, his3, trp1, ura3, 4 LexA-LEU2, lys2::3 cIop-LYS2, CAN^R, CYH2^R, ade2::2 LexA-CYH2-ZEO, his5::2 LexA-URA3-G418) using a standard lithium-acetate based chemical transformation protocol.
The Phylomer™ peptide library was transformed into S. cerevisiae strain PRT51 (MATα, his3, trp1, ura3, 6 LexA-LEU2, lys2::3 cIop-LYS2, CYH2^R, ade2::G418-pZero-ade2, met15::Zeo-pBLUE-met15, his5::hygro), using a high-efficiency lithium acetate-based chemical transformation protocol, slightly modified to maximize the number of transformants.
Bait/prey plasmid containing PRT480 haploids (10^8 cells) were mated with the Phylomer™ library (10^7 c.f.u.) according to a liquid mating protocol for pretransformed libraries (Clontech, USA), and plated to HW^− minimal media (minimal media lacking histidine and tryptophan) to select for diploids. These plates were scraped after 2 days incubation at 30° C., and the cells were washed, resuspended 1:1 (v/v) in yeast freezing solution (65% v/v glycerol, 0.1M MgSO4, 25 mM Tris-Cl pH 8.0), and frozen at −80° C. in 1 ml aliquots.
To select peptides that block formation of an AP-1 complex requiring the interaction between JUN1 and JunZ, about 1.5×10^7 c.f.u Jun/Phylomer™ diploids were thawed and outgrown overnight in HW^− to achieve log-phase growth. The following day, 4×10^7 cells were plated onto counter-selective media: HWU^− (lacking histidine, tryptophan and uracil), containing supplements of 0.02% galactose (gal), 2% raffinose (raff), 0.2 μg/ml uracil, 0.06% (w/v) 5-Fluoroorotic acid (FOA), 5 μg/ml cycloheximide. These plates were incubated for 7 days, then colonies were picked to HWU^− 0.02% gal, 2% raff, and then to HWL^− (lacking histidine, tryptophan and leucine) 0.02% gal, 2% raff to confirm blocking phenotype.
These included transformants comprising the clones designated PYC19 [DNA sequence set forth in SEQ ID NO: 26; encoded amino acid sequence set forth in SEQ ID NO: 27 (with FLAG epitope) and 28 (without FLAG epitope)]; PYC35 [DNA sequence set forth in SEQ ID NO: 34; encoded amino acid sequence set forth in SEQ ID NO: 35 (with FLAG epitope) and 36 (without FLAG epitope)]; PYC36 [DNA sequence set forth in SEQ ID NO: 43; encoded amino acid sequence set forth in SEQ ID NO: 44 (with FLAG epitope) and 45 (without FLAG epitope)]; PYC38/39 [DNA sequence set forth in SEQ ID NO: 52; encoded amino acid sequence set forth in SEQ ID NO: 53 (with FLAG epitope) and 54 (without FLAG epitope)]; and PYC41 [DNA sequence set forth in SEQ ID NO: 60; encoded amino acid sequence set forth in SEQ ID NO: 61 (with FLAG epitope) and 62 (without FLAG epitope)].
Subsequently, the individual plasmid clones were rescued from the yeast and re-transformed to confirm the disruption phenotype; 63% of the primary “hits”, including PYC 19, PYC35, […], PYC38/39 and PYC41, were positive in two assays for recapitulation of the phenotype.

Test [2] relates to AP-1 luciferase reporter in K562/AP1-Luc cells. Put plainly: Luciferase reporter gene assay of AP-1 dependent transcriptional activity. Type of test: cell-based. To be noted: pcDNA3-peptide transfection, 48 hours, normalised to renilla, vs pcDNA3 vector. As for the experimental part: Phylomer™ peptides that inhibit an AP-1 complex formation as described in Example 1 were tested for their ability to decrease AP-1 controlled reporter expression (since Jun dimers are AP-1 moieties). A transient transfection assay in which the expression of each clone was plasmid driven was employed, thereby avoiding the synthesis of large numbers of peptides.
The K562 cell line was stably-transfected with the AP-1 luciferase reporter (AP1-Luc) of the Mercury Pathway Profiling kit (Clontech, U.S.A.), and the clonal cell line K562/AP1-Luc was established. In 6-well tissue culture plate format, K562/AP1-Luc cells were transfected with either pcDNA3 control, pcDNA3-JunDN (a dominant negative mutant of c-Jun), or pcDNA3-peptide, using Lipofectamine2000 (Life Technologies) according to manufacturer's instructions. Transfection reactions were incubated for 48 hours, cells collected and protein lysates extracted for luciferase assay according to Mercury Pathway Profiling kit and associated protocols.
Luciferase assays were performed in independent triplicates, and results for each peptide subjected to statistical analysis (SPSS software package) to determine if they were different to JunDN (positive control for AP-1 inhibition) or pcDNA-3 (negative control for AP-1 inhibition).
All AP-1 luciferase values were normalised to the renilla expression from a cotransfection control. Under these experimental conditions, approximately 30% of Phylomer™ peptides decreased AP-1 reporter activity by at least 50% when compared to the vector-only control (i.e., pcDNA3 vector). More particularly, the peptides designated PYC35, PYC36, PYC38/39 and PYC41 reduced AP-1 reporter activity to approximately 35%, 44%, 47% and 48%, respectively of the level observed for the control sample.
(In general: Reporter assays use an easily measured gene product as a stand-in for the process of interest.)

In test [3] the test system is neurons around the lesion in the somatosensory cortex. The test is described as follows: Acute cortical injury (focal traumatic brain injury), immunoreactivity in perilesion area. Type of test: in vivo. The following applies: acute cortical injury of rat brain tissue in situ. As for the experimental part: The ability of AP-1 signaling-inhibitory peptides to inhibit neuronal apoptosis was assessed by loss of MAP2 immunoreactivity in a focal model of traumatic brain injury (Chung et al., J. Neuroscience 23, 3336-3342, 2003; King et al., Neuropathol Appl Neurobiol. 27, 115-126, 2001).
Rats were subjected to acute cortical injury as previously described by Chung et al., J. Neuroscience 23, 3336-3342 (2003) and King et al., Neuropathol Appl Neurobiol. 27, 115-126 (2001). Briefly, male 240 g Hooded-Wistar rats were deeply anaesthetized using Isofluorane (2-3%) and were given an analgesic (Meloxycam, […]), by subcutaneous injection. Animals were immobilized in a Stoelting stereotactic frame, and a 21 gauge blunt Hamilton syringe was inserted into the Par1 region of the somatosensory cortex to a depth of 2 mm and was left in place for 10 minutes. Then, 0.5 μl of 5 μM peptide was administered through the syringe at a rate of 0.05 μl/min. Peptide (10 μl) was applied to 1 mm^2 of Gelfoam, which was implanted before suturing. At 1 day post-injury (PI), rats were deeply anaesthetized with sodium pentobarbital (60 mg/kg), then perfused transcardially with a 4% paraformalydehyde and 4% sucrose fixative solution in 0.01M PBS. Brains were removed and cryoprotected in 18% and 30% sucrose solutions, respectively and 40 μm coronal sections were collected serially through the injury site for immunohistochemical labelling. All animal procedures were approved by the University of Tasmania Animal Ethics Committee (Permit A008878).
Sections were labelled with Nissl Red, Nuclear Yellow and anti-MAP2 to allow a quantitative assessment of neuronal loss around the lesion. Sections from the lesion centre and 200 μm anterior and posterior to the centre of the injury, at layer III of the neocortex were included in the analysis and the area of MAP2 loss was scored by blinded observers. Three sections from each of three animals were examined for each treatment and significance assessed by ANOVA and post-hoc comparison (Tukey test).
All data are presented as mean±standard error. […]

T1 sequence (P05412 259-309 limits assumed): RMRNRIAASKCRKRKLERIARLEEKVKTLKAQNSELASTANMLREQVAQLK
T1 sequence (P05412 187-331 limits assumed): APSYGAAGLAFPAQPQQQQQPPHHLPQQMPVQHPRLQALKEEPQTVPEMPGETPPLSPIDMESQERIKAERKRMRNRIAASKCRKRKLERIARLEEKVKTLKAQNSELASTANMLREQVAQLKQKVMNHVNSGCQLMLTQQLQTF

“PYC19: Phylomer clone; encoded amino acid sequence SEQ ID NO: 27 (with FLAG epitope) and 28 (without FLAG epitope) (LINQSYAYPYIY; PYC19L peptide)”: in test [1], the “yeast survival on media for counter-selection against AP-1 complex formation viz. c-Jun dimerization” value is reported as “allowed yeast survival” and the “recapitulation of the disruption phenotype” value (“recapitulation” below) was “positive”.

As to “PYC35: Phylomer clone; encoded amino acid sequence SEQ ID NO: 35 (with FLAG epitope) and 36 (without FLAG epitope) (AYQSIRSGGIESSSKRER; PYC35L peptide)”, in test [1], the “yeast survival on media for counter-selection against AP-1 complex formation viz. c-Jun dimerization” value is “allowed yeast survival” and the “recapitulation” value was “positive”. Moreover, the “AP-1 reporter activity, of the level observed for the control sample” value (“AP-1 reporter activity” below) in test [2] is “approximately 35%”. Besides, in test [3], the “astrogliosis as determined by glial fibrillary acidic protein immunoreactivity” value is reported as “reduced astrogliosis”, the “loss of neurons as determined by MAP2 immunoreactivity” value is “reduced loss of neurons” and the “microglial activation as determined by ferritin immunoreactivity” value is listed as “reduced microglial activation”.

Turning to “PYC36: Phylomer clone; encoded amino acid sequence SEQ ID NO: 44 (with FLAG epitope) and 45 (without FLAG epitope) (GLQGRRRQGYQSIKP; PYC36L peptide)”, in test [1], the “yeast survival on media for counter-selection against AP-1 complex formation viz. c-Jun dimerization” value was “allowed yeast survival” and the “recapitulation” value is given as “positive”. For the same substance, in test [2], the “AP-1 reporter activity” value is reported as ~44%.

For “PYC38/39: Phylomer clone; encoded amino acid sequence SEQ ID NO: 53 (with FLAG epitope) and 54 (without FLAG epitope) (GLQGRRQPGQQPQGRWSGRALPAHR; PYC38/39L peptide)”, in test [1], the “yeast survival on media for counter-selection against AP-1 complex formation viz. c-Jun dimerization” value was “allowed yeast survival” and the “recapitulation” value was “positive”. For the same substance, the “AP-1 reporter activity” value in test [2] is ~47%.

On to “PYC41: Phylomer clone; encoded amino acid sequence SEQ ID NO: 61 (with FLAG epitope) and 62 (without FLAG epitope) (VSINQEHHRLLPL; PYC41L peptide)”, for which, in test [1], the “yeast survival on media for counter-selection against AP-1 complex formation viz. c-Jun dimerization” value is reported as “allowed yeast survival” and the “recapitulation” value is recorded as “positive”. In test [2], the “AP-1 reporter activity” value was ~48%.

The values are drawn from patent publication US8063012B2, “Neuroprotective peptide inhibitors of AP-1 signaling and uses therefor” (Phylogica Limited, priority 2006, dated 2011).
